# Measured values from article PMC12102759 (2025).
# B1: RNF115 peptide 67-82 (E3 ubiquitin-protein ligase RNF115), 16-mer library wild type / MDM2 SWIB (MDM2 SWIB/MDM2 domain, residues 17-125) (parent complex)
# chain 1: TTTHFAELWGHLDHTM
# chain 2: SQIPASEQETLVRPKPLLLKLLKSVGAQKDTYTMKEVLFYLGQYIMTKRLYDEKQQHIVYCSNDLLGDLFGVPSFSVKEHRKIYTMIYRNLVVVNQQESSDSGTSVSEN
# Variants of: B1
# Assay: proteomic peptide phage display deep mutational scan (ProP-PD DMS): M13 P8 16-mer library selected against immobilised GST-tagged bait for four days (rounds), NGS of the eluted pools per day and pseudo-replica; bait immobilised on MaxiSorp plates (10 µg), library pre-cleared on GST, 2 h binding at 4 °C, five washes; one round per day, days 1-4; value from days 2 and 3
row,Variant,screen value
1,chain 1 F5S,"0.000118 average fractional NGS count over selection days 2 and 3 (reads of this peptide / all reads for the bait, averaged over …"
2,chain 1 H4A,"0.000176 average fractional NGS count over selection days 2 and 3 (reads of this peptide / all reads for the bait, averaged over …"
3,chain 1 H11G,"0.000565 average fractional NGS count over selection days 2 and 3 (reads of this peptide / all reads for the bait, averaged over …"
4,chain 1 D13M,"0.00561 average fractional NGS count over selection days 2 and 3 (reads of this peptide / all reads for the bait, averaged over …"
5,chain 1 H14Y,"0.00813 average fractional NGS count over selection days 2 and 3 (reads of this peptide / all reads for the bait, averaged over …"
6,chain 1 A6W,"0.000676 average fractional NGS count over selection days 2 and 3 (reads of this peptide / all reads for the bait, averaged over …"
7,chain 1 H11T,"0.00102 average fractional NGS count over selection days 2 and 3 (reads of this peptide / all reads for the bait, averaged over …"
8,chain 1 A6H,"0.00017 average fractional NGS count over selection days 2 and 3 (reads of this peptide / all reads for the bait, averaged over …"
9,chain 1 T15W,"0.00561 average fractional NGS count over selection days 2 and 3 (reads of this peptide / all reads for the bait, averaged over …"
10,chain 1 H11D,"0.00024 average fractional NGS count over selection days 2 and 3 (reads of this peptide / all reads for the bait, averaged over …"
11,chain 1 E7D,"0.000661 average fractional NGS count over selection days 2 and 3 (reads of this peptide / all reads for the bait, averaged over …"
12,chain 1 G10A,"0.00678 average fractional NGS count over selection days 2 and 3 (reads of this peptide / all reads for the bait, averaged over …"
13,chain 1 T15M,"0.00385 average fractional NGS count over selection days 2 and 3 (reads of this peptide / all reads for the bait, averaged over …"
14,chain 1 T3A,"0.000681 average fractional NGS count over selection days 2 and 3 (reads of this peptide / all reads for the bait, averaged over …"
15,chain 1 H11K,"0.000921 average fractional NGS count over selection days 2 and 3 (reads of this peptide / all reads for the bait, averaged over …"
16,chain 1 H4F,"0.000236 average fractional NGS count over selection days 2 and 3 (reads of this peptide / all reads for the bait, averaged over …"
17,chain 1 D13P,"0.00074 average fractional NGS count over selection days 2 and 3 (reads of this peptide / all reads for the bait, averaged over …"
18,chain 1 H14S,"0.00046 average fractional NGS count over selection days 2 and 3 (reads of this peptide / all reads for the bait, averaged over …"
19,chain 1 M16W,"0.000718 average fractional NGS count over selection days 2 and 3 (reads of this peptide / all reads for the bait, averaged over …"
20,chain 1 D13G,"0.00549 average fractional NGS count over selection days 2 and 3 (reads of this peptide / all reads for the bait, averaged over …"
21,chain 1 H11V,"0.00167 average fractional NGS count over selection days 2 and 3 (reads of this peptide / all reads for the bait, averaged over …"
22,chain 1 L8H,"0.000131 average fractional NGS count over selection days 2 and 3 (reads of this peptide / all reads for the bait, averaged over …"
23,chain 1 T15G,"0.0009 average fractional NGS count over selection days 2 and 3 (reads of this peptide / all reads for the bait, averaged over …"
24,chain 1 A6Q,"0.000266 average fractional NGS count over selection days 2 and 3 (reads of this peptide / all reads for the bait, averaged over …"
25,chain 1 T2M,"0.000321 average fractional NGS count over selection days 2 and 3 (reads of this peptide / all reads for the bait, averaged over …"

row,Variant,screen value
1,chain 1 F5Y,"0.0001 average fractional NGS count over selection days 2 and 3 (reads of this peptide / all reads for the bait, averaged over …"
2,chain 1 T15L,"7.38e-05 average fractional NGS count over selection days 2 and 3 (reads of this peptide / all reads for the bait, averaged over …"
3,chain 1 D13W,"0.000615 average fractional NGS count over selection days 2 and 3 (reads of this peptide / all reads for the bait, averaged over …"
4,chain 1 T2L,"0.000556 average fractional NGS count over selection days 2 and 3 (reads of this peptide / all reads for the bait, averaged over …"
5,chain 1 H14E,"9.03e-05 average fractional NGS count over selection days 2 and 3 (reads of this peptide / all reads for the bait, averaged over …"
6,chain 1 T15H,"0.000116 average fractional NGS count over selection days 2 and 3 (reads of this peptide / all reads for the bait, averaged over …"
7,chain 1 D13V,"0.0143 average fractional NGS count over selection days 2 and 3 (reads of this peptide / all reads for the bait, averaged over …"
8,chain 1 H4I,"0.000874 average fractional NGS count over selection days 2 and 3 (reads of this peptide / all reads for the bait, averaged over …"
9,chain 1 L8F,"0.000568 average fractional NGS count over selection days 2 and 3 (reads of this peptide / all reads for the bait, averaged over …"
10,chain 1 H11M,"0.00257 average fractional NGS count over selection days 2 and 3 (reads of this peptide / all reads for the bait, averaged over …"
11,chain 1 D13Q,"0.00218 average fractional NGS count over selection days 2 and 3 (reads of this peptide / all reads for the bait, averaged over …"
12,chain 1 A6S,"0.000754 average fractional NGS count over selection days 2 and 3 (reads of this peptide / all reads for the bait, averaged over …"
13,chain 1 H4D,"0.000343 average fractional NGS count over selection days 2 and 3 (reads of this peptide / all reads for the bait, averaged over …"
14,chain 1 D13R,"0.000392 average fractional NGS count over selection days 2 and 3 (reads of this peptide / all reads for the bait, averaged over …"
15,chain 1 T2D,"0.00164 average fractional NGS count over selection days 2 and 3 (reads of this peptide / all reads for the bait, averaged over …"
16,chain 1 T15Y,"0.00205 average fractional NGS count over selection days 2 and 3 (reads of this peptide / all reads for the bait, averaged over …"
17,chain 1 M16T,"0.00044 average fractional NGS count over selection days 2 and 3 (reads of this peptide / all reads for the bait, averaged over …"
18,chain 1 H11S,"0.000392 average fractional NGS count over selection days 2 and 3 (reads of this peptide / all reads for the bait, averaged over …"
19,chain 1 H4G,"0.00192 average fractional NGS count over selection days 2 and 3 (reads of this peptide / all reads for the bait, averaged over …"
20,chain 1 F5Q,"0.00091 average fractional NGS count over selection days 2 and 3 (reads of this peptide / all reads for the bait, averaged over …"
21,chain 1 T3L,"0.00187 average fractional NGS count over selection days 2 and 3 (reads of this peptide / all reads for the bait, averaged over …"
22,chain 1 D13T,"0.0095 average fractional NGS count over selection days 2 and 3 (reads of this peptide / all reads for the bait, averaged over …"
23,chain 1 T3D,"0.000232 average fractional NGS count over selection days 2 and 3 (reads of this peptide / all reads for the bait, averaged over …"
24,chain 1 T3Q,"0.000196 average fractional NGS count over selection days 2 and 3 (reads of this peptide / all reads for the bait, averaged over …"
25,chain 1 T3I,"0.00069 average fractional NGS count over selection days 2 and 3 (reads of this peptide / all reads for the bait, averaged over …"

row,Variant,screen value
1,chain 1 H11N,"0.000176 average fractional NGS count over selection days 2 and 3 (reads of this peptide / all reads for the bait, averaged over …"
2,chain 1 H14A,"0.00138 average fractional NGS count over selection days 2 and 3 (reads of this peptide / all reads for the bait, averaged over …"
3,chain 1 D13F,"0.00274 average fractional NGS count over selection days 2 and 3 (reads of this peptide / all reads for the bait, averaged over …"
4,chain 1 G10M,"0.00144 average fractional NGS count over selection days 2 and 3 (reads of this peptide / all reads for the bait, averaged over …"
5,chain 1 T3H,"0.000104 average fractional NGS count over selection days 2 and 3 (reads of this peptide / all reads for the bait, averaged over …"
6,chain 1 D13S,"0.00426 average fractional NGS count over selection days 2 and 3 (reads of this peptide / all reads for the bait, averaged over …"
7,chain 1 G10L,"0.000164 average fractional NGS count over selection days 2 and 3 (reads of this peptide / all reads for the bait, averaged over …"
8,chain 1 T3V,"0.000622 average fractional NGS count over selection days 2 and 3 (reads of this peptide / all reads for the bait, averaged over …"
9,chain 1 L8Y,"0.0291 average fractional NGS count over selection days 2 and 3 (reads of this peptide / all reads for the bait, averaged over …"
10,chain 1 H4L,"0.000482 average fractional NGS count over selection days 2 and 3 (reads of this peptide / all reads for the bait, averaged over …"
11,chain 1 L12M,"0.000189 average fractional NGS count over selection days 2 and 3 (reads of this peptide / all reads for the bait, averaged over …"
12,chain 1 T3S,"0.000431 average fractional NGS count over selection days 2 and 3 (reads of this peptide / all reads for the bait, averaged over …"
13,chain 1 G10N,"0.000457 average fractional NGS count over selection days 2 and 3 (reads of this peptide / all reads for the bait, averaged over …"
14,chain 1 H11F,"0.00626 average fractional NGS count over selection days 2 and 3 (reads of this peptide / all reads for the bait, averaged over …"
15,chain 1 D13N,"0.000525 average fractional NGS count over selection days 2 and 3 (reads of this peptide / all reads for the bait, averaged over …"
16,chain 1 T3Y,"0.000753 average fractional NGS count over selection days 2 and 3 (reads of this peptide / all reads for the bait, averaged over …"
17,chain 1 H11Q,"0.00312 average fractional NGS count over selection days 2 and 3 (reads of this peptide / all reads for the bait, averaged over …"
18,chain 1 H14T,"0.000601 average fractional NGS count over selection days 2 and 3 (reads of this peptide / all reads for the bait, averaged over …"
19,chain 1 L12I,"0.000166 average fractional NGS count over selection days 2 and 3 (reads of this peptide / all reads for the bait, averaged over …"
20,chain 1 D13A,"0.00127 average fractional NGS count over selection days 2 and 3 (reads of this peptide / all reads for the bait, averaged over …"
21,chain 1 E7I,"0.000492 average fractional NGS count over selection days 2 and 3 (reads of this peptide / all reads for the bait, averaged over …"
22,chain 1 H14V,"0.00211 average fractional NGS count over selection days 2 and 3 (reads of this peptide / all reads for the bait, averaged over …"
23,chain 1 A6M,"0.00215 average fractional NGS count over selection days 2 and 3 (reads of this peptide / all reads for the bait, averaged over …"
24,chain 1 M16A,"9.05e-05 average fractional NGS count over selection days 2 and 3 (reads of this peptide / all reads for the bait, averaged over …"
25,chain 1 T2I,"0.00157 average fractional NGS count over selection days 2 and 3 (reads of this peptide / all reads for the bait, averaged over …"
